Data as given in US20230296611A1 (INNATE PHARMA, published 2023).

What was measured:
[1] = target: T1, human MICA*001 (human, UniProt Q29983 24-297); test: IHC with hybridoma supernatant on FFPE C1R MICA*001 cell pellet, Ventana, CC1 or CC2
T1 construct: C1R-neo cells transfected with human MICA*001, formalin fixed and paraffin embedded (or live cells for flow cytometry); also called C1R MICA*001 cells
T1 sequence: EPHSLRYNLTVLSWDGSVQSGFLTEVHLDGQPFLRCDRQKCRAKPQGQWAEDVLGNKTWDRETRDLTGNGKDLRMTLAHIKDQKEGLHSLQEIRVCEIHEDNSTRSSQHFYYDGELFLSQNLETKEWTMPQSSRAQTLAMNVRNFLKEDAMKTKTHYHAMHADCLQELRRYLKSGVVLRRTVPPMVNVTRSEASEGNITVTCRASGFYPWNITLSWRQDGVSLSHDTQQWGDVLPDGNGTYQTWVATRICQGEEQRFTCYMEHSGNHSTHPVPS
Protocol: (§1) In parallel to the phenotyping by flow cytometry, the cell lines were fixed in formalin and embedded in paraffin. Briefly, 20×10⁶ to 40×10⁶ cells were fixed for 1 hour with formalin 4%. The cells were washed twice in PBS, and there were resuspended in Histogel. The cell pellets were dehydrated and embedded in paraffin. For each cell line, several FFPE cell pellets were made A mix of cells (C1R MICA*008 (15.10⁶ cells) and C1R MICB (15.10⁶ cells)) was also were embedded in paraffin. Sectioning of FFPE cell pellets was performed and MICA/B staining done by IHC. Briefly, 5 μm-thick sections were incubated dewaxed, submitted to an antigen retrieval step and incubated with immune or non-immune sera, hybridoma supernatants, chain combinations Abs or purified and commercial Abs followed by a signal amplification step. Enzymatic revelation was finally performed using 3, 3′-diaminobenzidine (DAB). For the IHC stainings with the mouse sera, staining interpretation was done by attributing a percentage of stained cells in the pellet section as well as an intensity score using the following criterion: “−”: negative staining; “+”: weak positive staining; “++”: intermediate IHC signal in intensity and “+++”: strong positive staining. […]

[2] = target: T2, human MICA*008 (human, UniProt Q29983 24-297); test: IHC with hybridoma supernatant on FFPE C1R MICA*008 cell pellet, Ventana, CC1 or CC2
T2 construct: C1R-neo cells transfected with human MICA*008, formalin fixed and paraffin embedded (or live cells for flow cytometry); transmembrane and cytoplasmic parts are not in the entry; also called C1R MICA*008 cells
T2 chain: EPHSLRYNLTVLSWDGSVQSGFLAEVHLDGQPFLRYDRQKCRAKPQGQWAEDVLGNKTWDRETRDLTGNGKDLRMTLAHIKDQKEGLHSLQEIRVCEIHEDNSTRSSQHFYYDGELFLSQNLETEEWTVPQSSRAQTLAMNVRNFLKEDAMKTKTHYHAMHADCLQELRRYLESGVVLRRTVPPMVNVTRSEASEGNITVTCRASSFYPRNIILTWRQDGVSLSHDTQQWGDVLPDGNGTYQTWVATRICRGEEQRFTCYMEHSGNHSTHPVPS
Protocol: as §1

B1: antibody 12C9 (antibody, V domains shown)
VH: EIQLQQSGPELEKPGASVKISCKASGYAFTGYYMNWMKQRNGKSLDWIGTINPYYGSSTYNQKFKGKATLTVDESSSTAYMQLTSLTSEDSAVYYCARVDGDHGYFDYWGRGTTLTVSS
VL: DVVMTQTPLSLPVSLGDQASISCRSSQSLVHSNGNTYLHWYLQKPGQSPKLLIYKVSTRFSGVPDRFSGSGSGTDFTLKISRVEAEDLGVYFCSQSTHVPFTFGSGTKLEIK
notes: Produced as a mouse antibody with mouse gamma1 chain (mIgG1 isotype)
[1]
  binding result: binds
[2]
  binding result: binds
